8 molecules from patent US20230374114A1 (Dana-Farber, published 2023) can be followed below.

In experiment [1] the target is WT Spike (SARS-CoV-2, UniProt P0DTC2 16-1213).
Experiment [2] has as its target spike protein on live SARS-CoV-2 (isolate USA-WA1/2020) (SARS-CoV2, UniProt P0DTC2 14-1273). The experiment can be described thus: cell-based or functional assay.
Experiment [3] has as its target WT Spike (SARS-CoV2, UniProt P0DTC2 16-1213).

B1: S1-R3-T1-H7 (Ab12) (scFv, V domains shown)
VH: EVQLVESGPGVVSPSATLFLTCSVSGGSIRTHSWNWIRQPPGKPLEWIGFIHHSGATNKNPSLKSRVTISSDTSKNEFSLTLTSVTAADTAVYYCARGPGILSYWSRGTLVTVSS
VL: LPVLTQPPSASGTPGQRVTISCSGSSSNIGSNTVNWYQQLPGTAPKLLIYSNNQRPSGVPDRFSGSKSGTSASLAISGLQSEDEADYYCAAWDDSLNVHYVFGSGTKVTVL
Consider B1, for which the affinity with WT Spike [1], expressed as Kd, was 8.31 pM.

B2: Ab 14 IgG (antibody, V domains shown)
VH: QVQLQQSGPGLVKPSQTLSLTCAISGDSVSSNSAAWNWIRQSPARGLEWLGRTYYRSRWYNDYAISMKSRITINPDTSKNQFSLQLESVTPEDTAVYYCAREIRGFDYWGQGTLVTVSS
VL: QSVLTQPPSASGSPGQSVTISCTGTSSDVGAYNFVSWYQHHPGKAPKLIIYDFNKRPSGVPDRFSGSKSGNTASLTVSGLQADDEADYYCSSYAGSNNFDVVFGGGTKLTVL
Turning to B2, the “shift of the neutralization IC50 of the IgG against the scFv-Fc” value in experiment [2] stood at 40 fold.

B3: S1-RBD-R3-E1-E8 Ab (Ab 37) (scFv, V domains shown)
VH: QVQLVQSGAEVKKPGASVKVSCKASGYTFTSYGISWVRQAPGQGLEWMGWISTYNGNTNYAQKLQGRVTMTTDTSTSTAYMEVRSLRSDDTAVYYCARDVFGHFDYWGQGTLVTVSS
VL: NFMLTQPHSVSESPGKTVLISCTRSSGNIATNYVQWYQQRPGSAPTTVIYEDNQRPSGVPDRFSGSIDSSSNSASLTISGLKTEDEADYYCKSYDDGNHVFGGGTKLTVL
For the molecule B3, the Kd – broadly, the free concentration of one partner at which half of the binding sites on the other are occupied at equilibrium, for simple one-to-one binding – in the experiment with WT Spike [3] turned out to be 9 pM.

B4: Ab 38 (scFv, V domains shown)
VH: QVTLKESGPTLVKPTQTLTLTCTFSGFSLTTSGVSVGWIRQPPGKALEWLALIHWDDDKRYSPSLRSRLTITRDTSKNQVVLTVTDMDPADTGTYYCASFIMTVYAEYFEDWGQGTLVTVSS
VL: EIVLTQSPATLSVSPGERATLSCRASQSVSSNLAWYQQKPGQAPRLLMYDVSTRATGIPARFSGSGSGTEFSLTISSLQSEDFAVYYCQQRGAWPLTFGGGTKVEIK
The molecule B4 gave a Kd with WT Spike [3] of 7.86 pM.

B5: RBD-R3-E1-F5 Ab (Ab_36) (scFv, V domains shown)
VH: QVQLQQSGPGLVKPSQTLSLTCAIFGDSVTSNSAAWNWIRQSPSRGLEWLGRTYYSSKWYNDYAVSVKSRVTINADTSKNQLSLQLNSVTPEDTAVYYCARGWLRLSFDPWGQGTLVTVSS
VL: NFMLTQPHSVSESPGKTVTISCTGSSGSIASNYVQWLQQRLGSAPTTVIYEDNQRPSGVPDRFSGSIDSSSNSASLTISGLKTEDEADYYCQSYDPNNHGVVFGGGTKLTVL
In turn, B5 displayed a Kd with WT Spike [3] of 9.01 pM.

B6: RBD-R3-E1-G7 (Ab2-10) (scFv, V domains shown)
VH: EVQLVESGPGLVKPSETLSLTCTVSGGSISSYYWSWIRQPAGKGLEWIGRIYTSGSTNYNPSLKSRVTMSVDTSKNQFSLKLSSVTAADTAVYYCARDVGFGWFDRWGQGTLVTVSS
VL: NFMLTQPHSVSESPGKTVTISCTRSSGSIASNYVQWYQQRPGSSPTTVIYEDNQRPSGVPDRFSGSIDSSSNSASLTISGLTTEDEADYYCQSFDSASLWVFGGGTKLTVL
For B6, the Kd with WT Spike [1] was found to be 5.65 pM.

B7: S1-RBD-R3-T1-G1 Ab (Ab_35) (scFv, V domains shown)
VH: EVQLVQSGAEVKKPGESLRISCKASGYSFTSNWIGWVRQMPGKGLEWMGSIFPGDSDTKYSPSFQGQVTISADRSISTAYLQWSGLKASDTAMYYCARESYNAYGSWGQGTLVTVSS
VL: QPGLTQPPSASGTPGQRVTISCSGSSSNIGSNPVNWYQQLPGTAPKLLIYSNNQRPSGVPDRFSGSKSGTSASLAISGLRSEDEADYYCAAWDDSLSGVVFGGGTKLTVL
In turn, B7 had a Kd in the experiment with WT Spike [3] of 8.9 pM.

B8: S1-RBD-R3-T1-F9 Ab (Ab_39) (scFv, V domains shown)
VH: QVTLKESGPTLVKPTQTLTLTCTLSGVSLDTIGMRVSWIRQPPGKALEWLARIDWDDDKFYSTALKTRLTISKDTSKNQVVFTMTSMDPVDTATYYCARSGLLYDLDVWGRGTLVTVSS
VL: QSVVTQPPSVSGAPGQRVTISCTGSDSDIGANFVQWYQQLPGTAPKLLIWRNTNRPSGVPDRFSASKSGTSASLAITGLQAEDEADYFCQSYDSSLSAYVFGGGTKVTVL
In the case of B8, the Kd with WT Spike [3] was determined as 2.04 pM.
